Two molecules from PMC6194676, “Blood-brain barrier-associated pericytes internalize and clear aggregated amyloid-β42 by LRP1-dependent apolipoprotein E isoform-specific mechanism” (Molecular Neurodegeneration, 2018) can be followed below.

The test system of assay [1] is CD13+ pericytes. In words: Cy3-Aβ42 uptake by pericytes on freshly isolated mouse brain cortical slices. The note with it: Cy3-Aβ42 1 μM. The class given is cell-based. As for the experimental part: Brain slices were prepared from 2-month old C57BL6 mice or Lrp^lox/lox;Cspg4-Cre mice. Following the urethane anesthesia, brains were quickly removed from the cranial cavity and sectioned with McIlwain tissue chopper (Ted Pella, Inc., Redding, CA, USA) into 200 μm thick slices containing cortex and hippocampus, as previously described. Slices were recovered for 30 min in a submersion chamber filled with the per-warmed (at 37 °C) artificial cerebrospinal fluid (aCSF; 126 mM NaCl, 2.5 mM KCl, 1.25 mM Na2PO4, 26 mM NaHCO3, 1 mM MgCl2, 2 mM CaCl2, 0.5 mM ascorbic acid, 2 mM sodium pyrurate, and 10 mM glucose, saturated with 95% O2 and 5% CO2). […] (anti-LRP1 N20, 50 μg/ml; Santa Cruz Biotech., Santa Cruz, CA, USA) for 20 min at 37 °C. At the end of the experiment, brain slices were washed with phosphate buffer saline (PBS) and fixed with 4% PFA for 30 min. The same immunostaining procedure as for human brain tissue without antigen retrieval was performed on mouse brain slices. Primary antibodies included goat anti-mouse aminopeptidase N (CD13) (1:100, R&D Systems), and goat anti-mouse PDGFRβ (1:100, R&D Systems). Secondary antibodies were: Alexa 488-conjugated donkey anti-goat (1:200, Invitrogen). Images were obtained with Zeiss 510 confocal microscopy (Carl Zeiss MicroImaging Inc.) with lasers and band-pass filter settings as described above. […]

The test system of assay [2] is primary mouse brain pericytes. The assay can be described thus: Clearance of aggregated Cy3-Aβ42 from multi-spot glass slides by primary mouse brain pericytes. It is filed as cell-based. To be noted: 5 days of culture, 1 μg Cy3-Aβ42 per spot, 5,000 cells per spot; anti-LRP1 50 μg/ml, RAP 500 nM, or si.Lrp1; compared to cell-free control; N = 4 independent cultures, mean. The text has this:
Brain capillaries were isolated from mouse cortices pooled from 3 to 4 mouse brains for each biological replicate. In experiments in Figs. 4 and 5, we used 3–4 independent biological replicates (cultures), as indicated in the legends to these respective figures. Capillaries were isolated as we have described previously. In brief, mouse cortices were macroscopically dissected, and all visible white matter was discarded in ice-cold PBS containing 2% fetal bovine serum (FBS). The brain was homogenized in PBS containing 2% FBS and centrifuged at 6,000 g for 15 min after addition of Dextran (70 kDa, Sigma). The capillary pellet was collected and sequentially filtered through a 45 μm cell strainer (BD Falcon). […]
The multi-spot glass slides (Thermo Scientific, 9991090, Waltham, MA, USA) were coated with Cy3- Aβ42 [29, 51] at 1 μg per spot without cells or with brain capillary pericytes treated with non-immune IgG (NI-IgG) or LRP1-specific blocking antibody (anti-LRP1; 50 μg/ml) or) or apoE-specific blocking antibody (anti-apoE, HJ6.3, 50 μg/ml), scrambled siRNA (si.Control) or LRP1 siRNA (si.Lrp1) (Dharmacon, E-040764-00-0010) or apoE siRNA (si.Apoe) (Dharmacon, E-040885-00-0005), and 500 nM receptor-associated protein (RAP) (EMD Bioscience), lipidated apoE3 (40 nM) or apoE4 (40 nM). […] The Cy3-Aβ42 relative intensity was analyzed with the NIH Image J software. […]

“Cy3-Aβ42: Human Cy3-labelled amyloid-β42; preparation contained monomers, dimers, trimers, tetramers and small molecular weight oligomers [reference compound]”: the “Uptake of Cy3-Aβ42 by pericytes, time course” value in assay [1] (30 min vs 2 h) is “rapid and time-dependent”.

B1: RAP: Receptor associated protein, an LRP1 antagonist which inhibits ligand binding to LRP1 (protein, UniProt P30533 35-357, looked up)
Alpha-2-macroglobulin …: YSREKNQPKPSPKRESGEEFRMEKLNQLWEKAQRLHLPPVRLAELHADLKIQERDELAWKKLKLDGLDEDGEKEARLIRNLNVILAKYGLDGKKDARQVTSNSLSGTQEDGLDDPRLEKLWHKAKTSGKFSGEELDKLWREFLHHKEKVHEYNVLLETLSRTEEIHENVISPSDLSDIKGSVLHSRHTELKEKLRSINQGLDRLRRVSHQGYSTEAEFEEPRVIDLWDLAQSANLTDKELEAFREELKHFEAKIEKHNHYQKQLEIAHEKLRHAESVGDGERVSRSREKHALLEGRTKELGYTVKKHLQDLSGRISRARHNEL
With B1, in assay [1] (2 h, in the presence of the LRP1 inhibitor (anti-LRP1 50 μg/ml), confocal microscopy, N = 4 independent cultures, mean), the “Cy3-Aβ42+ area occupying CD13+ pericyte profiles” value is given as 21.7%. For the same molecule, in assay [2], the “Cy3-Aβ42 cleared by pericytes” value was 27.3%.
